From the supplement of paper PMC10724198
± gives the standard deviation of the averaged measurements.

What was measured:
Saccharomyces cerevisiae [1] = test: protein stability index of tFT-peptide fusion (C-terminal peptide) (PSI (0-1 scale)); higher = more stable (slower turnover)
Experimental: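 MPS profiling in S. cerevisiae of the tFT-X12 degron library: putative degron peptides plus stable controls, 12 aa, fused to the C-terminus of a sfGFP-mCherry timer. Cells are FACS-sorted into 8 mCherry/sfGFP bins and deep-sequenced. PSI runs from 0 (unstable) to 1 (stable). Backgrounds are wild type, das1Δ and doa10Δ at 30 °C, and wild type, das1Δ, cdc34-1 and cdc53-1 at 37 °C; 2-3 technical replicates each.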

Saccharomyces cerevisiae [2] = test: as above; conditions: genetic background: wild type; temperature: 30 C
[3] = genetic background: cdc34-1, temperature: 37 C
[4] = genetic background: cdc53-1, temperature: 37 C
[5] = genetic background: das1 deletion, temperature: 30 C
[6] = genetic background: das1 deletion, temperature: 37 C
[7] = genetic background: doa10 deletion, temperature: 30 C
[8] = genetic background: wild type, temperature: 30 C
[9] = genetic background: wild type, temperature: 37 C
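Note: PSI is a weighted mean of sequencing reads over stability bins, variants kept only with over 10 reads, mCherry proximal and sfGFP distal, peptide attached via GGGS linker.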

Sequence	protein stability index (Saccharomyces cerevisiae [1]; [3])	protein stability index (Saccharomyces cerevisiae [1]; [4])	protein stability index (Saccharomyces cerevisiae [1]; [5])	protein stability index (Saccharomyces cerevisiae [1]; [6])	protein stability index (Saccharomyces cerevisiae [1]; [7])	protein stability index (Saccharomyces cerevisiae [1]; [8])	protein stability index (Saccharomyces cerevisiae [1]; [9])	protein stability index (Saccharomyces cerevisiae [2])
FIFLFVALFCVF	0.31 ± 0.039	0.343 ± 0.0083	0.327 ± 0.017	0.404 ± 0.014	0.328 ± 0.012	0.29 ± 0.021	0.365 ± 0.036	0.353 ± 0.067
FILIFLGILSCC	0.409 ± 0.0092	0.453 ± 0.058	0.356 ± 0.026	0.463 ± 0.014	0.312 ± 0.0014	0.325 ± 0.025	0.4149 ± 0.0031	0.378 ± 0.04
FIYSVFFYSYWF	0.36 ± 0.043	0.467 ± 0.033	0.287 ± 0.015	0.467 ± 0.0063	0.318 ± 0.025	0.272 ± 0.013	0.429 ± 0.017	0.363 ± 0.016
FLFLESFLFFYL	0.5 ± 0.052	0.4797 ± 0.0046	0.418 ± 0.03	0.5698 ± 0.0026	0.502 ± 0.0079	0.411 ± 0.017	0.525 ± 0.055	0.499 ± 0.02
FLFVFLGVYGHV	0.281 ± 0.02	0.409 ± 0.018	0.271 ± 0.044	0.494 ± 0.027	0.27 ± 0.0047	0.288 ± 0.029	0.46 ± 0.0054	0.404 ± 0.012
FLGPYTPGMYLA	0.656 ± 0.031	0.7393 ± 0.0022	0.658 ± 0.015	0.7435 ± 0.0044	0.208 ± 0.011	0.258 ± 0.019	0.482 ± 0.0086	0.359 ± 0.037
FLISVRFVLILN	0.169 ± 0.027	0.186 ± 0.012	0.175 ± 0.021	0.278 ± 0.01	0.143 ± 0.0081	0.135 ± 0.0052	0.208 ± 0.0085	0.173 ± 0.024
FLLFLPLLFFFL	0.414 ± 0.037	0.396 ± 0.0095	0.396 ± 0.024	0.456 ± 0.013	0.4578 ± 0.0037	0.377 ± 0.018	0.4384 ± 0.0031	0.3904 ± 0.001
FLLHLVAHFSFL	0.544 ± 0.014	0.571 ± 0.0063	0.517 ± 0.0071	0.531 ± 0.0066	0.473 ± 0.027	0.472 ± 0.017	0.503 ± 0.003	0.527 ± 0.044
FLLIVSSVSFYL	0.209 ± 0.016	0.2981 ± 0.00045	0.213 ± 0.024	0.3885 ± 0.0014	0.177 ± 0.0069	0.207 ± 0.021	0.346 ± 0.0035	0.342 ± 0.052
FLLLSCLVRRSF	0.508 ± 0.054	0.6 ± 0.018	0.454 ± 0.017	0.611 ± 0.01	0.404 ± 0.014	0.429 ± 0.0061	0.549 ± 0.018	0.4628 ± 0.00075
FLRFVFSFTFFV	0.387 ± 0.0054	0.382 ± 0.019	0.408 ± 0.031	0.411 ± 0.0061	0.265 ± 0.0046	0.24 ± 0.028	0.3144 ± 0.0024	0.321 ± 0.0054
FLVGVARCPFLV	0.632 ± 0.069	0.7 ± 0.015	0.587 ± 0.018	0.725 ± 0.053	0.244 ± 0.021	0.254 ± 0.034	0.401 ± 0.012	0.361 ± 0.012
FLVLLFCLFFCF	0.463 ± 0.053	0.447 ± 0.021	0.43 ± 0.024	0.552 ± 0.015	0.524 ± 0.007	0.43 ± 0.033	0.4952 ± 0.0042	0.462 ± 0.026
FMCGWRMLVSVS	0.0379 ± 0.032	0.0371 ± 0.0077	0.0474 ± 0.016	0.0676 ± 0.027	0.0307 ± 0.0023	0.0292 ± 0.011	0.045 ± 0.019	0.0594 ± 0.023
FPGLPVFFPPPL	0.707 ± 0.052	0.766 ± 0.015	0.689 ± 0.026	0.769 ± 0.012	0.709 ± 0.039	0.703 ± 0.011	0.731 ± 0.012	0.726 ± 0.015
FPRLERVAVMAR	0.117 ± 0.035	0.127 ± 0.035	0.177 ± 0.032	0.244 ± 0.0086	0.145 ± 0.0069	0.167 ± 0.025	0.221 ± 0.031	0.25 ± 0.011
FQILLRFFRSVA	0.5907 ± 0.0037	0.657 ± 0.025	0.551 ± 0.022	0.612 ± 0.0079	0.189 ± 0.003	0.206 ± 0.029	0.4 ± 0.017	0.324 ± 0.017
FRAKRTVFQRNS	0.671 ± 0.044	0.737 ± 0.039	0.668 ± 0.028	0.718 ± 0.01	0.2585 ± 0.0011	0.289 ± 0.0073	0.526 ± 0.021	0.441 ± 0.012
FRFFRPSFRFFC	0.588 ± 0.015	0.713 ± 0.021	0.624 ± 0.0092	0.7518 ± 0.0026	0.107 ± 0.014	0.118 ± 0.0071	0.221 ± 0.033	0.2 ± 0.06

Sequence	protein stability index (Saccharomyces cerevisiae [1]; [3])	protein stability index (Saccharomyces cerevisiae [1]; [4])	protein stability index (Saccharomyces cerevisiae [1]; [5])	protein stability index (Saccharomyces cerevisiae [1]; [6])	protein stability index (Saccharomyces cerevisiae [1]; [7])	protein stability index (Saccharomyces cerevisiae [1]; [8])	protein stability index (Saccharomyces cerevisiae [1]; [9])	protein stability index (Saccharomyces cerevisiae [2])
FRFPCSILMTLL	0.578 ± 0.011	0.6111 ± 0.0035	0.538 ± 0.021	0.622 ± 0.026	0.196 ± 0.0043	0.197 ± 0.013	0.297 ± 0.036	0.258 ± 0.028
FRQEVLHWRQHS	0.622 ± 0.064	0.712 ± 0.032	0.633 ± 0.035	0.727 ± 0.028	0.167 ± 0.048	0.145 ± 0.035	0.332 ± 0.015	0.342 ± 0.077
FRWLAFALLFGC	0.416 ± 0.011	0.477 ± 0.027	0.38 ± 0.012	0.495 ± 0.025	0.1758 ± 0.00032	0.166 ± 0.018	0.348 ± 0.0068	0.245 ± 0.0079
FSARPFLYSFRP	0.694 ± 0.024	0.743 ± 0.0082	0.667 ± 0.025	0.7416 ± 0.0052	0.653 ± 0.037	0.654 ± 0.0083	0.711 ± 0.0089	0.028 ± 0.0092
FSCEFKMSCLKS	0.649 ± 0.04	0.701 ± 0.0097	0.601 ± 0.023	0.679 ± 0.016	0.474 ± 0.015	0.488 ± 0.029	0.605 ± 0.017	0.507 ± 0.011
FSIFFIIEFVGT	0.179 ± 0.038	0.211 ± 0.0069	0.209 ± 0.015	0.374 ± 0.013	0.157 ± 0.011	0.187 ± 0.028	0.324 ± 0.022	0.242 ± 0.12
FSSYLSALLIVV	0.102 ± 0.047	0.1279 ± 0.00017	0.176 ± 0.017	0.242 ± 0.0039	0.155 ± 0.0065	0.167 ± 0.029	0.214 ± 0.019	0.246 ± 0.012
FSYVGFFFLLGF	0.417 ± 0.051	0.471 ± 0.0073	0.346 ± 0.021	0.494 ± 0.0069	0.392 ± 0.049	0.352 ± 0.025	0.467 ± 0.0053	0.414 ± 0.016
FTYCIVFFFSRL	0.428 ± 0.024	0.537 ± 0.038	0.383 ± 0.038	0.571 ± 0.045	0.379 ± 0.011	0.391 ± 0.03	0.494 ± 0.021	0.457 ± 0.014
FTYFFFVRVLLV	0.11 ± 0.045	0.14 ± 0.01	0.156 ± 0.031	0.2772 ± 0.00032	0.11 ± 0.0067	0.118 ± 0.0091	0.129 ± 0.0084	0.187 ± 0.0053
FVCSSVFVVLLF	0.349 ± 0.017	0.423 ± 0.023	0.295 ± 0.029	0.4769 ± 0.001	0.264 ± 0.017	0.294 ± 0.054	0.464 ± 0.026	0.45 ± 0.044
FVFLCLLCISSF	0.202 ± 0.0059	0.286 ± 0.011	0.214 ± 0.027	0.355 ± 0.006	0.193 ± 0.01	0.2 ± 0.03	0.3152 ± 0.0017	0.278 ± 0.012
FVGCFVFYLFLL	0.422 ± 0.023	0.479 ± 0.016	0.418 ± 0.031	0.5184 ± 0.0036	0.394 ± 0.011	0.362 ± 0.035	0.458 ± 0.027	0.417 ± 0.013
FVRVFMASIIWC	0.478 ± 0.032	0.487 ± 0.034	0.395 ± 0.029	0.508 ± 0.024	0.391 ± 0.012	0.376 ± 0.036	0.518 ± 0.013	0.452 ± 0.0082
FVVFAFGVLPVK	0.496 ± 0.005	0.5131 ± 0.0027	0.389 ± 0.028	0.552 ± 0.012	0.361 ± 0.019	0.388 ± 0.039	0.514 ± 0.0089	0.466 ± 0.011
FVVRVVCRLGFF	0.2226 ± 0.0011	0.338 ± 0.014	0.218 ± 0.027	0.374 ± 0.02	0.182 ± 0.0026	0.215 ± 0.012	0.3396 ± 0.0013	0.325 ± 0.015
FWFSFLLSGVCC	0.24 ± 0.031	0.171 ± 0.013	0.272 ± 0.029	0.29 ± 0.0029	0.257 ± 0.012	0.268 ± 0.022	0.266 ± 0.016	0.347 ± 0.04
FWFVSVFIVFFC	0.185 ± 0.0033	0.26 ± 0.021	0.222 ± 0.043	0.337 ± 0.022	0.179 ± 0.018	0.164 ± 0.034	0.279 ± 0.018	0.223 ± 0.026
FYLPGLFFVRFR	0.167 ± 0.072	0.0822 ± 0.053	0.313 ± 0.043	0.33 ± 0.019	0.616 ± 0.037	0.272 ± 0.026	0.29 ± 0.04	0.391 ± 0.022
